Test results as given in the DeepSol protein solubility set.

Assay: soluble on expression in E. coli; label from the status in PepcDB or PDB records

Question: For “MATKNEELPIIDLAATEGYIVDDTDEDDPVLLAPDGTPIDTWRENYPYEERMTRDEYEKTKRALQIELLKWQNWTKDTGQRHIILFEGRDAAGKGGTIKRFNEHLNPRGARTVALEKPSPRESTSWYFQRYIEHFPCAGEIVFFDRSWYNRSGVERVMGFCTESQHAEFLREVPMLENMILGSGISLTKFWFSVTQKEQRTRFAIRQVDPVRQWKLSPMDLASLDRWDDYTRAKEEQFRYTDTDEAPWITIRSNDKKRARINAMRYILSKFEYSNKDHDLVGEPDPLIVMRGRDRIGD”, which “soluble on expression in E. coli” value is on record?
Answer: not soluble

Question: For “MATKPQDANTTSREAITSKADSPPRPTALIFDSGVGGLSVYQEIRQLLPDLHYIYAFDNVAFPYGEKSGEFIVERVLEIVTAVQQRHPLAIVVIACNTASTVSLPALRERFAFPVVGVVPAIKPAVRLTRNGVVGLLATRATVHASYTLDLIARFATDCKIELLGSSELVEVAETKLHGGVVPLEVLKKILHPWLSMREPPDTIVLGCTHFPLLTEELAQVLPEGTRMVDSGAAIARRTAWLISSQENVISSQDENIAYCMALDEDTDALLPVLQSYGFPKLQKLPI”, which “soluble on expression in E. coli” value is on record?
Answer: not soluble

Question: Which “soluble on expression in E. coli” value does the source give for “MATLDGINVKDIVKVERTSVHSHITGLGLNDRLEAEYVSGGMVGQVAARQAAGLIVKMIQEGKIAGRALLVTGEPGAGKTAIAIAISKELGEDTPFVSIVASEIYSNEINKTEALTQAFRRALGIQIKEETEVLEGEVISLEVDRSANGMGPKVGKLTMRTTDMETIYDLGSKMVDACLKEKVMPGDVIQVDKASGRVTRLGRSFNRSHDYDAMGPKVKLVQCPDGEIQKRRETVHTVCLHDIDVINSRTQGYVALFSGDTGEIKAEVRDQINKKVLEWREEGKAKFVPGVLFIDEAHMLDIECFSFLNRAIEGELSPLIIMATNRLIEKVRGTDVESAHGIPSDFLDRMLIINAIPYTKEDTAKILSIRCDEEGVKLQPTALDLLVKLQEATSLRYCIHLIAASEVIRIRSKAEIVTTDHIGSAYRLFFDTKRSEKILTEESAGFLQ” here?
Answer: not soluble

Question: For “MATPSLTDACVHCGFCLSDCPSYRVLGRETDSPRGRVYLMDSLQQGRIELSDTVVEHFDTCLGCLACTSACPSGVQYDQLIEEMRQRIAQEHRRPWPEAIWRKLLFAFLPLEHHHHHH”, which “soluble on expression in E. coli” value is on record?
Answer: soluble

Question: For “MATPTFDTIEAQASYGIGLQVGQQLSESGLEGLLPEALVAGIADALEGKHPAVPVDVVHRALREIHERADAVRRERFKAMAAEGVKYLEENREKDGVNSTESGLQFRVLTQGEGAIPARTDRVRVHYTGKLIDGTVFDSSVARGEPAEFPVNGVIAGWIEALTLMPVGSKWELTIPQELAYGERGAGASIPPFSTLVFEVELLEIL”, which “soluble on expression in E. coli” value is on record?
Answer: not soluble

Question: For “MATSNLLKNKGSLQFEDKWDFMHPIVLKLLRQESVTKQQWFDLFSDVHAVCLWDDKGSSKIHQALKEDILEFIKQAQARVLSHQDDTALLKAYIVEWRKFFTQCDILPKPFCQLEVTLLGKQSSNKKSNMEDSIVRKLMLDTWNESIFSNIKNRLQDSAMKLVHAERLGEAFDSQLVIGVRESYVNLCSNPEDKLQIYRDNFEKAYLDSTERFYRTQAPSYLQQNGVQNYMKYADAKLKEEEKRALRYLETRRECNSVEALMECCVNALVTSFKETILAECQGMIKRNETEKLHLMFSLMDKVPNGIEPMLKDLEEHIISAGLADMVAAAETITTDSEKYREQLDTLFNRFSKLVKEAFQDDPRFLTARDKAYKAVVNDATIFKAENLYFQ”, which “soluble on expression in E. coli” value is on record?
Answer: soluble

Question: With “MATTATRHQDSKLSEKAESILAGFKLNWMNLRDAETGKVLWQSTEDMADPKREHKAHVPKNLLKCRTVSREINFTSSVKIEKFRLEQRVYLKGTIIEEWYFDFGFVIPDSTNTWQNMIEAAPESQMFPPSVLSGNVVVETLFYDGDLLVSTSRVRLYYD” as the sequence, how does the “soluble on expression in E. coli” value read?
Answer: not soluble

Question: Which “soluble on expression in E. coli” value does the source give for “MATWQGTNGGLLAGIGGVNSNAPSVNDIGNTLQLIRQNNDIERSGANNVGLTALQGLSGIAGVFQQEKQAQRQKEFQQAYANAYASGDRGALRQLATQYPDQIESVRKGMGFIDEEQRNSIGTLAAGARLASSSPEAMQSWLQNNAGELARVGVNPHDVAQMYQQNPRQFGEFVDHLGMNSLGPEKYFDLQDKMQGRQVTMRGQDLDSQTAARNQAITMRGQDIQANLGQQRINLDAETNRINNENKRLDRMLSAETNDLKRQEIQSRIAANNQQLQQKQQALNDGYKDGINTLTTSMFTLNDIVSSPSLKSITGLRGVIPNVPGSQAADTQARLDTFKSQAYLTAVQAMRGMGALSDAEGKKLDQAVGSLQNSQSEESFRRNAGVILNTLNQKRNEAVGKYVQQNGIKRVEAPQASIDYLKQHPELSIDFINRYGYLPSLGQ” here?
Answer: soluble

Question: Which “soluble on expression in E. coli” value does the source give for “MAVIKQDDLIQSVADALQFISYYHPVDFIQAMHEAYLREESPAARDSMAQILINSRMCATGHRPICQDTGIVTVFVRVGMDVRWDGATMSVDDMINEGVRRAYNLPENVLRASILADPAGARKNTKDNTPAVIHYSIVPGDKVEVDVAAKGGGSENKSKMAMLNPSDSIVDWVLKTVPTMGAGWCPPGMLGIGIGGTAEKAAVMAKEVLMDPIDIHELKARGPQNRIEELRLELFEKVNQLGIGAQGLGGLTTVLDVKIMDYPTHAASLPVCMIPNCAATRHAHFVLDGSGPAELEAPSLDAYPEIVWEAGPSARRVDLDKITPEEVQSWKPGETLLLNGKMLTGRDAAHKRMVDMLNKGETLPVDLKGRFIYYVGPVDPVGDEVVGPAGPTTATRMDKFTRQILEQTGLLGMIGKSERGPIAIEAIKDNKAVYLMAVGGAAYLVAQAIKKSKVLAFAELGMEAIYEFEVKDMPVTVAVDTNGESVHITGPAVWQ” here?
Answer: not soluble

Question: Which “soluble on expression in E. coli” value does the source give for “MAVIYKTTAHASAGREGVVQTVDGFTVSLAFPKPGATHQDKNNPEQLFASAYAGCFSQAVRVVLQQHQLQLATQPIVGVSVELHDQDGLFHIKAGVELAITGVDQTTAQTVITAAHAMCPFSRLIKPENFLGLTLNGAKL” here?
Answer: soluble

Question: Which “soluble on expression in E. coli” value does the source give for “MAVKLGTLLLALALGLAQPASARRKLLVFLLDGFRSDYISDEALESLPGFKEIVSRGVKVDYLTPDFPSLSYPNYYTLMTGRHCEVHQMIGNYMWDPTTNKSFDIGVNKDSLMPLWWNGSEPLWVTLTKAKRKVYMYYWPGCEVEILGVRPTYCLEYKNVPTDINFANAVSDALDSFKSGRADLAAIYHERIDVEGHHYGPASPQRKDALKAVDTVLKYMTKWIQERGLQDRLNVIIFSDHGMTDIFWMDKVIELNKYISLNDLQQVKDRGPVVSLWPAPGKHSEIYNKLSTVEHMTVYEKEAIPSRFYYKKGKFVSPLTLVADEGWFITENREMLPFWMNSTGRREGWQRGWHGYDNELMDMRGIFLAFGPDFKSNFRAAPIRSVDVYNVMCNVVGITPLPNNGSWSRVMCMLKGRAGTAPPVWPSHCALALILLFLLA” here?
Answer: soluble

Question: For “MAVRIVTDSSSGLPAEIAEELGITVVDLHLVASENQVSTAGLSALELTAAYARQLERGGDAGVVALHLSKELSSTWSAAHTAAAVFDGTVDVVDTQSVGMCVGAAAMAAARLAQGGASLRECADMARDTLRRSETWLYLHRMEEMRRSGRITTATAVVSAALATKPIMQLRGGHVELAVKTRTQSKAFARLVAVISDRCAGEPAFVAIQHHQALEAAHSLQSQLTAALPKGSSFMIMDMDQALSVHCGVGALGISVVFSSYSDTAPIDLSTTS”, which “soluble on expression in E. coli” value is on record?
Answer: not soluble

Question: With “MAVSPDDPLILVGRVAGGFGVRGEVRITTYTEDPLSIAGFKALKRQDGSPALTIASARKTKDGVVCRCPGVETKEAADALRGLRLYVPRSALPEPDDDEFYLTDLVGLTVRHIQTDQLLGRVKSVQNFGAGDILEITPDLGGPTWYLPFTRAAVPEVRVSEGLILADPPALVGDHEGPEEKGLDENEELGDRDAAALEHHHHHH” as the sequence, how does the “soluble on expression in E. coli” value read?
Answer: not soluble

Question: Which “soluble on expression in E. coli” value does the source give for “MAVSVGEGPDTKPTARGQPAAVGRVVVLSGPSAVGKSTVVRCLRERIPNLHFSVSATTRCPRPGEVDGVDYHFIDPTRFQQLIDQGELLEWAEIHGGLHRSGTLAQPVRAAAATGVPVLIEVDLAGARAIKKTMPEAVTVFLAPPSWQDLQARLIGRGCETADVIQRRLDTARIELAAQGDFDKVVVNRRLESACAELVSLLVGTAPGSPGVPRGKLAAALEHHHHHH” here?
Answer: soluble

Question: For “MAWASPDGHCTVEHSADSVHLWRFEHSVYDGFDTHWTATFTPEVPERLVAQFFTHLATTTPVERVFRDVPYLVQSLDAALITPVNRAAVNPHVHHAGAQLGRAVHRRLEHHHHHH”, which “soluble on expression in E. coli” value is on record?
Answer: not soluble

Question: Which “soluble on expression in E. coli” value does the source give for “MAWSRVGDNIATHPLMSRLLTSCEFDHSLKNEAFGALVQLTTVSAAHLTDYIIEYGLMAQIAPGREKQLIDVLVDAGMLFRDEVDGRKVLRIVDDNELLHNRSRDEVEIDRRRAADKRNPALIPAVRYRDGDQCRWCGRTVDWRDRKGGRAATIDSLNEHRESTVDTLVVACKSCNSKRGAGEELQLLPTPTREKVHYTDHTIDWINRSEWAQHEGIHLEPRQTHLDIGQQITTPAAPSEQQQVGQAAAPLEAAARAHRAAPDVEAPFVSDPLDEAPDWVKQSLVNDHGQAAAPLMAAAPREHDHAPAAPSEQQQVGQAAAPLEAAARAHRAAPDVEAPPQHHVDNETVKPSTDLEQITDRWGDGSRSLGTGRDGNGQVGTARRRRRRRRGGRGTGRNKAHG” here?
Answer: not soluble

Question: With “MAWTSTLPAHLLNLIKNSKYVHVATCSKDCIPSVALMNYIYVPGEKLFGQTDNKNDYIIFVSPQDTQKFYNIKENPKVALLFHDWIIANNLSVGKESISGTPTPTSIPHEEQRQSELLNLLQELNQAELNQMSASIGGETEIVNPESEESKYYKDLILKANPDAKAFIFEKNTAVVKVRIDNARVSNNENRTMFLSKGKS” as the sequence, how does the “soluble on expression in E. coli” value read?
Answer: soluble

Question: For “MAYDSRLPEQRDPATDPSANYDYQGDSVNRPDLVSALEQRVDGDVRFDTYTRELFATDASAYEQLPIGVVSPVSTEDVVAVMEYCAAEDIPVLPRGGGTSLAGQAVNEAVVLDFKRYMDE”, which “soluble on expression in E. coli” value is on record?
Answer: not soluble

Question: With “MCDTLILRHQGQTWFAKNSDREPAEPQRLLRLPAVRNDPEARLRTTYLDIPQTAQRHALVISQPSWIWGAEMGVNEHGVAIGNEAVFTKLTRQRGTALLGMDLLRLGLERGASAREALEVITGLLQRYGQGGPAGYRDKRIRYDNSFLIADPGEAWVLETAGNLWAAKKVERWAISNALTLGHEFDLCSRDLEDQARRQGCWDGRGDFHFARVFDTRLLPWVGGAHRRCRINQRFLDSLPGEPDWHALFAALRHHGPRGDHFRRHNNRQVCMHAGSFWRPSQTTASLVARLRDDGPLLAATGTSAPCLGLFQPLSFDPASGAAVLSQPREAVQESPWWRFEAVHRRALTDRAFRRLLRSGRDWLERELFADLEQPDWPRLAEDAAAWHACWHDQVAMQPLAQQRWWRSHAALAAALEHHHHHH” as the sequence, how does the “soluble on expression in E. coli” value read?
Answer: not soluble

Question: For “MCGIFAYLNFLTPKKRSEIVDILVQGLQRMEYRGYDSAGIAIDGSNEIESPHSSVALLRKAGKVSVLSDFIKESSSDLDMDMEYNIHCGIAHTRWATHGSPRDVNSHPHRSNDKNEFLVVHNGIITNYREIKEYLEKKGHKFESETDTEVIAKLAQHIHDRYPDFSFRQLVETVIQQLEGAFALAFKSSRFPGQLVASRRGSPLLVGIKSNSRLQTNHFPVSFSKDAGWKWGDEKQTDGRRFMSNHATHLRDETSFVETPNNILDLSIAVRSSNGSAKMEISDSTTAVRPFDSDDWEVEYFVASDAAAIIEHTKQVLFLEDDDVAFVEDGALTIHRISRHADNGEQKREVKLLEMELQEIMKGSFKTYMQKEIFEQPDSVVNTMRGRVLPSGQVVLGGIKEYLPDIKRCRRLIMVACGTSYHSAIACRQILEELSELPVVVELASDFLDRETPIFRDDVCLFISQSGETADTLLALRYCKPRGALTIGVTNTVGSSICRESHCGIHINAGPEIGVASTKAYTSQILSLLMFALTLSDDRISMAKRREEIIDALNDLPELIREVLQLDEKVLDIAKQIYKEKSLLIMGRGLNFATCLEGALKIKELSYMHCEGIMSGELKHGPLAMVDEFLSICMVVCNDRVYKKSLNALQQVVARKGAPIIIADCTVPEGDLAGMKHILRVPKTVDCVQNILTVIPLQLLSYHIAELNGANVDRPRNLAKSVTVE”, which “soluble on expression in E. coli” value is on record?
Answer: not soluble
